PMC3924863 (Cancer research, 2013)
Numbering of substitutions follows the chain as printed. Blank lines part the entries; values can stand above or below the binder they belong to.

Tests used:
[1] = biological target: recombinant monomeric cynomolgus monkey HER3 extracellular domain (cynomolgus monkey); assay: solution equilibrium titration
[2] = biological target: recombinant monomeric rat HER3 extracellular domain (Rattus norvegicus, UniProt Q62799); assay: solution equilibrium titration
[3] = biological target: recombinant mouse HER3 extracellular domain (Mus musculus, UniProt Q61526); assay: solution equilibrium titration
[4] = biological target: T1, recombinant monomeric human HER3 extracellular domain (human, UniProt P21860); assay: solution equilibrium titration
[5] = biological target: Fc-tagged HER2 extracellular domain (Homo sapiens (assumed), UniProt P04626); assay: ELISA
[6] = biological target: Fc-tagged HER4 extracellular domain (Homo sapiens (assumed), UniProt Q15303); assay: ELISA
[7] = biological target: Fc-tagged EGFR extracellular domain (Homo sapiens (assumed), UniProt P00533); assay: ELISA
[8] = biological target: isolated HER3 domains D3-4 (Homo sapiens, UniProt P21860); assay: ELISA
[9] = biological target: T1, recombinant monomeric human HER3 …; assay: ELISA

Kd [1]: 0.043 nM | Kd [2]: 0.057 nM | Kd [3]: 0.037 nM | Kd [4]: 0.032 nM | binding result [5]: no binding | binding result [6]: no binding | binding result [7]: no binding
B1: LJM716 (antibody, V domains shown)
VH: EVQLLESGGGLVQPGGSLRLSCAASGFTFSSYAMSWVRQAPGKGLEWVSAINSQGKSTYYADSVKGRFTISRDNSKNTLYLQMNSLRAEDTAVYYCARWGDEGFDIWGQGTLVTVSS
VL: DIQMTQSPSSLSASVGDRVTITCRASQGISNWLAWYQQKPGKAPKLLIYGASSLQSGVPSRFSGSGSGTDFTLTISSLQPEDFATYYCQQYSSFPTTFGQGTKVEIK

binding result [8]: no binding | binding result [9]: binds
B2: MOR09825 Fab (Fab, V domains shown)
VH: B1 VH with E1Q, L5V
VL: B1 VL with T85V
